Experimental data taken from the DeepSol protein solubility set.

Assay: soluble on expression in E. coli; label from the status in PepcDB or PDB records

Sequence	soluble on expression in E. coli
MSGVYDSQADIYLDARPTYPADWYSKLAALSHRHNLAWDAGTGNGQAAIGIAEHYERVVATDVSETMLNLGKPHPKVTYHHTPSSMTEDEMVDLIGGENSVDLITVATAVHWFDLPRFYAIANRLLRKPGGIIAVWSYNTDMVVNPEFDSVMTRFIAETLPYCKFPESQYFLDGYKTLPFPFESVGLGSEGKPMELEMKKTVSFEGFLRMLRSWSAVGAAKEKGVDLLSDNVVKELETAWGGYELVRTIVYKTFMLAGTVP	soluble
MSHLLTMSELSEVEISEILKDAEDFANGKESKTTEQTFVANLFFENSTRTRFSFEVAEKRLGLDVLNFSADASSVQKGETLYDTIRTLESIGTKAVVIRHEQDRYFDELKDQVNIPILNAGDGCGNHPTQCLLDLLTIKQEFGRFEGLKIAIVGDVRHSRVARSNAEALTKLGATIYFASPEEWKDEDNTFGTYKPLDELVPEVDVMMLLRVQHERHDHYETDIMKEYHEKHGLTVEREKRMKEGSIIMHPAPVNRDVEIASELVECERSRIFKQMENGVYVRMAVLKRALPNVLGGMKHELFV	not soluble
MSHLNYNHLYYFWMVCKQGSVTKAADALFLTPQTVTGQIKALEDRLDGKLTKRNGRSIEPTELGQLVFKYADRMFGLSYEMLDIVNYSQRSNLLFDVGVADALSKRLVSKILLTSVPGDNRIHLRCFESTHEMLLEQLAQHKLDMILSDCPVDSSQSPGLFSKKLGESRMSFFSFGDVDFAPFPAVLQSKKLLVPGSRTAMGRKVRQWFDRQGLQPHILGEFDDSALMKAFAIYHSDAVFMAPSFYVSEVDAESSLKLIGHVDEIKEEYYVIFAERMIQHPAVKNVCDADFTNLFL	not soluble
MSHPSHVRALCASLCLGAGLPVHAGHVHAGQGFLEDAKASLTARNFHLHRNFVGDASQGKAEEWTQSFILDARSGFTQGSVGFGLDVLGLYSLKLDGGKGTAGTQLLPIHDDGRPADDFGRLAVAGKLRVSNSELKIGEWMPVLPILRSDDGRSLPQTFRGGQLSANEIAGLTLYAGQFRGNSPRNDASMQDMSLFGRPAATSDRFDFAGGEYRFNGERSLLGLWNAELKDIYRQQYLQLQHSQPLGDWLLGANLGGFRGRDAGSARAGKLDNRTVSALFSARYGLHTLYLGLQKVSGDDGWMRVNGTSGGTLANDSYNASYDNPGERSWQLRYDFDFVGLGLPGLTFMTRYLHGDHVRLAGVTDDGSEWGRESELGYTLQSGAFKRLNVRWRNSSQRRDWGSNTRFDENRLIVSYPLSLL	not soluble
MSHQDDYLSVEELIEIQKEETRDIIQALLEDGSDPDALYEIEHHLFAEDFDKLEKAAVEAFKMGFEVLEAEETEDEDGNKLLCFDATMQSALDAKLIDEQVEKLVNLAEKFDIIYDGWGTYYEGLEHHHHHH	soluble
MSHSAKKALLPLLAVATLAGLAGCATETSTALPVQQVESVNRPYSGVRSPIAVGKFDNRSSYMRGIFSDGVDRLGGQAKTILITHLQQTNRFNVLDRDNMSEIQQEAAIKGQAQRLKGADYVVTGDVTEFGRKEVGDRQLFGILGRGKSQIAYAKVALNIVNISTSEVVYSTQGAGEYALSNREVIGFGGTASYDSTLNGKVLDLAMREAVNKLVNAVDSGAWKPQNQ	not soluble
MSIAEFAYKEKPETLVLFDVDGTLTPARLTVSEEVRKTLAKLRNKCCIGFVGGSDLSKQLEQLGPNVLDEFDYSFSENGLTAYRLGKELASQSFINWLGEEKYNKLAVFILRYLSEIDLPKRRGTFLEFRNGMINVSPIGRNASTEERNEFERYDKEHQIRAKFVEALKKEFPDYGLTFSIGGQISFDVFPAGWDKTYCLQHVEKDGFKEIHFFGDKTMVGGNDYEIFVDERTIGHSVQSPDDTVKILTELFNL	soluble
MSIIKKIVFKRFNSTLKKTALHDLHVSLGGTMVPYAGYSMPVLYKGQTHIESHNWTRTNAGLFDVSHMLQSKLSGPHSVKFLQRVTPTDFNALPVGSGTLSVLLNPQGGVVDDTIITKENDDNEFYIVTNAGCAERDTEFFHDELQNGSTLDCQWKIIEGRSLLALQGPKAKDVLEPLLSKTAPGKDLKELFFGQRHEFALKDGSLVQIARGGYTGEDGFEISIANEKAVEFAEQLLANPVMKPIGLAARDSLRLEAGMCLYGHELDESITPVEAALNWVISKSRRDLVDQKYWFNGYAKIMDQLNNKTYSKVRVGFKYLKKGPAARNGVKIFLPDAETEVGLVTSGSASPTLNNINIGQAYVQKGYHKKGTKLLVQVRNKFYPIELAKMPLVPTHYYKQ	not soluble
MSILRIHAREIFDSRGNPTVEVDLYTAKGLFRAAVPSGASTGIYEALELRDNDKTRFMGKGVSQAVEHINKTIAPALVSKKVNVVEQEKIDKLMIEMDGTENKSKFGANAILGVSLAVCKAGAVEKGVPLYRHIADLAGNPEVILPVPAFNVINGGSHAGNKLAMQEFMILPVGASSFREAMRIGAEVYHNLKNVIKEKYGKDATNVGDEGGFAPNILENKEALELLKTAIAKAGYTDQVVIGMDVAASEFYRSGKYDLDFKSPDDPSRYITPDQLADLYKSFVQNYPVVSIEDPFDQDDWGAWQKFTASAGIQVVGDDLTVTNPKRIAKAASEKSCNCLLLKVNQIGSVTESLQACKLAQSNGWGVMVSHRSGETEDTFIADLVVGLCTGQIKTGAPCRSERLAKYNQILRIEEELGSKAKFAGRSFRNPLAK	soluble
MSIQNISFLGAGSIAEAIIGGLLHANVVKGEQITVSNRSNETRLQELHKKYGVKGTHNKKELLTDANILFLAMKPKDVAEALTPFKEYINNNVLIISLLAGVSTDSIRKLLQKDVPIIRAMPNTSAAILKSATAISPSKHATAEHIRTATSLFETIGLVSVVEEEDMHAVTALSGSGPAYIYYVVEAMEEAAKKIGLKEDVAKSLILQTMIGAAEMLKASDKHPSILRKEITSPGGTTEAGIEVLQEHKFQQALISCITQATKRSHNLGKTLEQLTKEKLEHHHHHH	soluble
MSIRIIPQDELGSSEKRTADMIPPLLFPRLKNLYNRRAERLRELAENNPLGDYLRFAALIAHAQKVVLYDHPLEMDLTARIKEASAQGKPPLDIHVLPRDKHWQKLLMALIAELKPEMSGPALAVIENLEKASTQELEDMASALFASDFSSVSSDKAPFIWAALSLYWAQMANLIPGKARAEYGEQRQYCPVCGSMPVSSMVQIGTTQGLRYLHCNLCETEWHVVRVKCSNCEQSGKLHYWSLDDEQAAIKAESCDDCGTYLKILYQEKEPKVEAVADDLASLVLDARMEQEGYARSSINPFLFPGEGE	not soluble
MSIRILPENEIKPSASAFEIPPLLFANPKNLYTRRAKRLRELAKNNPLRDYLEFAAHLVDIQLTLLETAPIGNYAEKLTAYLTENQGQKPLNKQQFARDEKWLELLLALIKQCKPYATGAILTTLEFLEKASYAELNNLADHLLNERYEQVSPDQSVFIWLALSLYWTQLAQQLPRHTQAEIGERHTCPVCGSAPITSVIHLDKTQGLRYLHCALCESEWNMTRAQCSNCDESGDLNYWSFDTVEAPIKAESCGDCHSYLKVLYQEKDPYVEPLADDLASLMLDIEMEQKGFVRSGLNPFLFSIE	not soluble
MSKAAKKKSSKKRSGSEAAQFDQKTIQEFKEAFGIMDQNKDGIIDKSDLKDLYASMGQIAPDSQIDAMIKEASGPINFTVFLTLFGERLTGTDPEATIVGAFAMFDKKDCGKIKEDDLIKILQNKRGEPLDEDEVKAMYKGKPPIEGGEVDYKAFAHLITTGAQDELASA	not soluble
MSKFPVPLRTIGGLRPSTTAAISAANIGFTQSSRALSTGAAAKSSGLVGQVARQYPNAAAFSIKQVRLYSSGNLPKHNRVALPALSPTMELGTVVSWQKKEGDQLSEGDLLCEIETDKATMGFETPEEGYLAKILIQEGSKDVPIGKLLCIIVDNEADVAAFKDFKDDGASSGGSAPAAEKAPEPAKPAASSQPSPPAQMYQAPSVPKSAPIPHSSSGRVSASPFAKKLAAENGLDLSGVSGSGPGGRILASDLSQAPAKGATSTTTQAVSGQDYTDIPLSNMRKTIAKRLTESKSTIPHYYLTSEIQLDTLLQVREKLNGLLAKGTSGQATKISINDFIIKASALACQRVPEANSYWMDSFIRENHHVDVSVAVSTPAGLITPIIFNAHAKGLATIASEIVELAQRAREGKLQPHEFQGGTFTVSNLGMFGSVSDFTAIINPPQSCILAIGGASDKLVPDEAEGYKKIKTMKVTLSCDHRTVDGAVGAVWLRHFKEFLEKPHTMLL	not soluble
MSKIETPVMTSLQTTAEKMMKDLNVPGAAVAVIKDGEVIISEGFGYRNIETKEAVTPNTRFAIGSSTKAFGTLSLSLLAQQKKFNWDTPIQSYIPNFTLSELLASSQVTGRDLASHRTGVSRHEALWYSSSLSRKDLVEKIKHLPLDAPFRTAFLYNNLMYATISYIVENITNQTWEQYTTEHILEPLNMRHTNFSVNDSQTTDDYALPYIENDGEIKAVPFRNIDTVGAAGCINSTIEDMANWVLLHLNEGKFGDHELISSELLQQMYTPHNSIPDQPVLSLPESPLNSYGLGWFISAYRGKKVIHHGGNIDGFSALVSFIPTENIGLVILTNAGGTLLPTYLANQIYDELLELESIDWHKRAVEDTKKMKEMMKEATESLPEQIKGTTPSHKLEDYTGTFEHPAYGTLQVYKRDDSLYVQFMEMDIQLGHHHYDIFSAKVDLFQMKMSLLFAYEMNVSGEFPSLQLHVPATLSTQPLTFKKIK	not soluble
MSKILVIAEHRRNDLRPVSLELIGAANGLKKSGEDKVVVAVIGSQADAFVPALSVNGVDELVVVKGSSIDFDPDVFEASVSALIAAHNPSVVLLPHSVDSLGYASSLASKTGYGFATDVYIVEYQGDELVATRGGYNQKVNVEVDFPGKSTVVLTIRPSVFKPLEGAGSPVVSNVDAPSVQSRSQNKDYVEVGGGNDIDITTVDFIMSIGRGIGEETNVEQFRELADEAGATLCCSAPIADAGWLPKSRQVGQSGKVVGSCKLYVAMGISGSIQHMAGMKHVPTIIAVNTDPGASIFTIAKYGIVADIFDIEEELKAQLAA	soluble
MSKKCLITGGAGFIGSHLAEELVGRGYNVTIVDNFYKGKNKYHDELMKEIRVIPISVLDKNSIYELVNQHDVVFHLAAILGVKTTMEKSIELIETNFDGTRNILQAALKGKKKVVFASTSEVYGKAKPPFSEEGDRLYGATSKIRWSYAICKTLEETLCLGYALEGLPVTIVRYFNIYGPRAKDGPYAGVIPRFISAALQGEDILVYGDGEQTRCFTYVSDAVEATIRAMDEKVNGEIINIGSENEKSIKEVAEVIKKLTDSSSKIVQVPFEEVYPHGFEEIPNRRPDVTKLKDLVQFQAKVTWEDGLKETIKWFREEDNG	soluble
MSKKTLSTVNYQLSTDTMCLAIPGQVIEIREENGLKMGTVDISGALTKACLEYVPEIAIGQYTIVHAGFALKIIDEKEAAESLKLWDELIKSGAFDVDGELPPSPIQKPEA	not soluble
MSKMTRHDAQLYELKKKIEELKKIRGRGTELISLYIPAGYDLSKVMQQLREEYSTAQNIKSKTTRKNVLGALERAMQHLKLYKQTPENGLALFVGNVSEIEGNTDIRLWAIIPPEPLNVRLYRCDQTFVTEPLEEMLRVKDAYGLITVEKNEATIGLLRGKRIELLDELTSNVPGKTRAGGQSARRYERIREQETHEFMKRIGEHANRAFLPLLEKGELKGIIIGGPGPTKEEFVEGEYLHHELKKKILGVVDISYHGEYGLRELVEKASDILRDHEVIREKKLVNEFLKHVVKDTGLATYGEREVRRALEIGAVDVLLISEGYNKVRVRVKCNHCGWEELKTMSEEEYEVYRKKITKCPKCGSQNLTIEKWDVAEELIKMAEEAGSDVEIISLDTEEGQQFYRAFGGLGAILRFKI	soluble
